# According to patent publication US20260242478A1 (published 2026):
# Where no end group is shown, it is not given here.
# B1: Phage-2840 (peptide)
# peptide: EPQWCIPKWMCDHM
# modifications: cysteine pairing not given here; also: fused to pIII of bacteriophage, linker and pIII sequence not given here
# notes: Clonal phage of the Peptide-180 optimization library, tested as crude phage supernatant; not shown: fused to pIII of the bacteriophage
# B2: Phage-2844 (peptide)
# peptide: VVAMCKPAWMCAGL
# modifications: cysteine pairing not given here; also: fused to pIII of bacteriophage, linker and pIII sequence not given here
# notes: as for B1
# B3: Phage-2845 (peptide)
# peptide: WDMLCRPAWMCEGF
# modifications: cysteine pairing not given here; also: fused to pIII of bacteriophage, linker and pIII sequence not given here
# notes: as for B1
# B4: Phage-2849 (peptide)
# peptide: VFPICKPSWMCVGM
# modifications: cysteine pairing not given here; also: fused to pIII of bacteriophage, linker and pIII sequence not given here
# notes: as for B1
# B5: Phage-2838 (peptide)
# peptide: HPKLCTPEWMCVIQ
# modifications: cysteine pairing not given here; also: fused to pIII of bacteriophage, linker and pIII sequence not given here
# notes: as for B1
# B6: Phage-2843 (peptide)
# peptide: MLPICKPDWMCAGF
# modifications: cysteine pairing not given here; also: fused to pIII of bacteriophage, linker and pIII sequence not given here
# notes: as for B1
# B7: Phage-2836 (peptide)
# peptide: DWKLCKPTWMCESL
# modifications: cysteine pairing not given here; also: fused to pIII of bacteriophage, linker and pIII sequence not given here
# notes: as for B1
# B8: Phage-2839 (peptide)
# peptide: DSHWCMPVWMCMGL
# modifications: cysteine pairing not given here; also: fused to pIII of bacteriophage, linker and pIII sequence not given here
# notes: as for B1
# B9: Phage-2841 (peptide)
# peptide: ESIRCTPAWMCVEM
# modifications: cysteine pairing not given here; also: fused to pIII of bacteriophage, linker and pIII sequence not given here
# notes: as for B1
# B10: Phage-2842 (peptide)
# peptide: PEVMCRPVWMCLGF
# modifications: cysteine pairing not given here; also: fused to phage pIII, linker not given here
# notes: as for B1
# B11: Phage-2846 (peptide)
# peptide: WEVRCVPEWMCVGF
# modifications: cysteine pairing not given here; also: fused to pIII of bacteriophage, linker and pIII sequence not given here
# notes: as for B1
# B12: Phage-2848 (peptide)
# peptide: VMTVCKPAWMCTGF
# modifications: cysteine pairing not given here; also: fused to pIII of bacteriophage, linker and pIII sequence not given here
# notes: as for B1
# B13: Phage-2847 (peptide)
# peptide: WMPRCVPEWMCAGF
# modifications: cysteine pairing not given here; also: fused to pIII of bacteriophage, linker and pIII sequence not given here
# notes: as for B1
# B14: Phage-2837 (peptide)
# peptide: VDRWCTPPWMCDWQ
# modifications: cysteine pairing not given here; also: fused to pIII of bacteriophage, linker and pIII sequence not given here
# notes: as for B1
# Biological target: T1, 006 PSMA Fab
# T1 construct: also called Anti-PSMA Fab
# Assay: clonal phage ELISA on captured anti-PSMA Fab; competitor PSMA antigen
# Method: (§1) Clonal phage were harvested as crude supernatants and screened via standard ELISAs. […] Prior to the addition of clonal phage. wells were incubated with blocking buffer and PSMA antigen or blocking buffer alone. Without washing or aspirating, clonal phage supernatants were then added to the wells and incubated for a short time. Wells were then washed followed by detection of bound phage using a horse radish conjugated anti-M13 antibody.
row,Binder,phage binding ELISA signal with PSMA antigen present
1,SAIRCEPLWMCSGL [Phage-3519],0.0578
2,EVQYCVPAWMCEGF [Phage-3520],0.117
3,GPKICVPMWMCDGF [Phage-3518],0.116

# Biological target: T1, 006 PSMA Fab
# Assay: clonal phage ELISA on biotinylated anti-PSMA Fab captured on neutravidin, anti-M13 HRP detection
# Method: as §1
row,Binder,phage binding ELISA signal
1,SAIRCEPLWMCSGL [Phage-3519],1.68
2,EVQYCVPAWMCEGF [Phage-3520],1.68
3,GPKICVPMWMCDGF [Phage-3518],1.68

# Biological target: T2, 006 PSMA Fab
# T2 construct: also called Anti-PSMA Fab
# Assay: clonal phage ELISA on biotinylated PSMA Fab captured on neutravidin plates, anti-M13 HRP detection;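 also: crude clonal phage supernatants tested, before phage were added, wells were pretreated with PSMA antigen in blocking buffer or with blocking buffer only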
# Method: as §1
row,Binder,"Phage binding ELISA signal, Anti-PSMA Fab"
1,B1,0.423
2,B2,2.48
3,B3,2.48
4,B4,2.46
5,B5,0.424
6,B6,2.49
7,B7,0.43
8,B8,0.423
9,B9,0.421
10,B10,2.51
11,B11,2.48
12,B12,2.47
13,B13,2.48
14,B14,0.429

# Biological target: T3, PSMA Fab
# T3 construct: also called Anti-PSMA Fab; 006 PSMA Fab
# Assay: phage ELISA; biotinylated PSMA Fab on neutravidin plate, blocking buffer alone, anti-M13 HRP detection
# Method: as §1
row,Binder,"Phage binding ELISA signal, Anti-PSMA Fab"
1,LEKVCKPMWMCTGF [Phage-3448],1.75
2,YNMICQPQWMCSGF [Phage-3447],1.75
3,YGLRCEPAWMCQGF [Phage-3443],1.75
4,EIPYCVPQWMCVAM [Phage-3434],1.76
5,MPIYCVPEWMCQGL [Phage-3446],1.75
6,TPHACVPDWMCYGF [Phage-3444],1.75
7,VTPRCIPEWMCAGF (cysteine pairing not given here; also: fused to pIII of bacteriophage) [Phage-3442],1.75
8,PAQMCIPQWMCNWL [Phage-3438],1.75
9,ITPMCIPAWMCEGV [Phage-3445],1.75
10,ETMICKPEWMCTGF [Phage-3441],1.75
11,SPIMCTPDWMCLGF [Phage-3439],1.75
12,VLHMCVPLWMCHGL [Phage-3435],1.76
13,VKPVCKPVWMCVGF [Phage-3436],1.76
14,PGPSCVPSWMCVGF [Phage-3437],1.76
15,PVRVCIPQWMCIGF [Phage-3440],1.75

# Biological target: T2, 006 PSMA Fab
# Assay: clonal phage ELISA on captured PSMA Fab pre-incubated with PSMA antigen as competitor, anti-M13 HRP detection;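 also: crude clonal phage supernatants tested by ELISA, wells first treated with blocking buffer plus PSMA antigen, bound phage read out via HRP-linked anti-M13 antibody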
# Method: as §1
row,Binder,"Phage binding ELISA signal, Anti-PSMA Fab with PSMA antigen"
1,B1,0.0608
2,B2,0.0731
3,B3,0.157
4,B4,0.174
5,B5,0.104
6,B6,0.0942
7,B7,0.0664
8,B8,0.156
9,B9,0.0725
10,B10,0.112
11,B11,0.119
12,B12,0.205
13,B13,0.334
14,B14,0.0626

# Biological target: T3, PSMA Fab
# Assay: phage ELISA; biotinylated PSMA Fab on neutravidin plate, pre-incubated with PSMA antigen as competitor, anti-M13 HRP detection
# Method: as §1
row,Binder,"Phage binding ELISA signal, Anti-PSMA Fab in presence of PSMA"
1,LEKVCKPMWMCTGF [Phage-3448],0.0949
2,YNMICQPQWMCSGF [Phage-3447],0.0661
3,YGLRCEPAWMCQGF [Phage-3443],0.0879
4,EIPYCVPQWMCVAM [Phage-3434],0.0788
5,MPIYCVPEWMCQGL [Phage-3446],0.0867
6,TPHACVPDWMCYGF [Phage-3444],0.0843
7,VTPRCIPEWMCAGF (cysteine pairing not given here; also: fused to pIII of bacteriophage) [Phage-3442],0.106
8,PAQMCIPQWMCNWL [Phage-3438],0.0635
9,ITPMCIPAWMCEGV [Phage-3445],0.0611
10,ETMICKPEWMCTGF [Phage-3441],0.0818
11,SPIMCTPDWMCLGF [Phage-3439],0.0708
12,VLHMCVPLWMCHGL [Phage-3435],0.133
13,VKPVCKPVWMCVGF [Phage-3436],0.122
14,PGPSCVPSWMCVGF [Phage-3437],0.074
15,PVRVCIPQWMCIGF [Phage-3440],0.13
